# B1: EC-3 protein, heterodimeric disintegrin from Echis carinatus suchoreki venom (protein)
# chain 1: NSVHPCCDPVKCEPREGEHCISGPCCRNCYFLRAGTVCKRAVGDDVDDYCSGITPDCPRNRYKGKED
# chain 2: NSVHPCCDPVKCEPREGEHCISGPCCRNCKFLNAGTICKRAMLDGLNDYCTGISTDCPRNRYKGKED
# B2: Echistatin (peptide)
# chain: ECESGPCCRNCKFLKEGTICKRARGDDMDDYCNGKTCDCPRNPHKGPAT
# B3: cyclic peptide … (peptide)
# peptide: CKRAMLDGLNDYC
# modifications: not checked
# Key:
# [1] = molecular target: integrin α4β1 on CHO cells transfected with human α4 (human) (UniProt P13612); test: inhibition of cell adhesion: A2 (CHOα4+) cells to immobilized VCAM-1
# [2] = molecular target: integrin α4β1 on CHO cells transfected with human α4 (human) (UniProt P13612); test: inhibition of cell adhesion: α4B2 (CHO α4+/α5-) cells to immobilized VCAM-1
# [3] = molecular target: integrin α4β1 on Jurkat cells, P13612
# [4] = molecular target: integrin α4β1 on Jurkat cells, P13612; test: inhibition of cell adhesion: Jurkat cells to immobilized VCAM-1
Binder,IC50 [1] [nM],IC50 [2] [nM],fold more active than MLDG [3] [fold],IC50 [4] [mM]
B1,30,30,–,–
B2,> 10000,> 10000,–,–
B3,–,–,5,1

# — patent publication US6818617
